Results as given in article PMC6523629.

Molecular target: tropomyosin receptors kinase A (TrkA) (rat (endogenous in PC12)) (UniProt P35739)
UniProt P35739, sequence (P35739 33-799): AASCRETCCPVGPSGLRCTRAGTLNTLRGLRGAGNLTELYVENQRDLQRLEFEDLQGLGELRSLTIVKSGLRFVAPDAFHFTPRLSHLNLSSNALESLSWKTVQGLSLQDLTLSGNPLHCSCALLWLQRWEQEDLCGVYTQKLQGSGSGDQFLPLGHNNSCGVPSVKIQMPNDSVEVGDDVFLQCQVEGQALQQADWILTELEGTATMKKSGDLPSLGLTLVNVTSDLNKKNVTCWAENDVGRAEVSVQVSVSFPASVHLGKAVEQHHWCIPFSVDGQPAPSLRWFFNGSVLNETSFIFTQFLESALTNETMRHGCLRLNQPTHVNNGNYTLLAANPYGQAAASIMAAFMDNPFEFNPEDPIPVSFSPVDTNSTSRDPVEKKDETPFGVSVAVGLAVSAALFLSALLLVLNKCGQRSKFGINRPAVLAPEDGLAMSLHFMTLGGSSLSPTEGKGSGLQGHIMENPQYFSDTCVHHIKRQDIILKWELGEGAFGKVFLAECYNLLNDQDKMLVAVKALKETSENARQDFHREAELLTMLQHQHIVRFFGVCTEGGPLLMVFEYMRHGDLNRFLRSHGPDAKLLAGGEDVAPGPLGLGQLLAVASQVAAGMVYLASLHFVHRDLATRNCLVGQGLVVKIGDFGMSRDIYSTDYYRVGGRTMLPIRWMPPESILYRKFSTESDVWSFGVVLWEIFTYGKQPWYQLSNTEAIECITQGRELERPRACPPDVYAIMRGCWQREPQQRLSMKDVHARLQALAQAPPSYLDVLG

phosphorylation of TrkA (Tyr-490), Western blot, PC12 cells, 50 uM peptide with 1 uM CuSO4, 10 min, % of the untreated control [%] | phosphorylation of TrkA (Tyr-490), Western blot, PC12 cells, 50 uM peptide, 10 min, % of the untreated control [%] | Substance
825 | 540 | NGF(1-14) (peptide)
1020 | 653 | d-NGF(1-15) (peptide)
